We go through three molecules from paper PMC6045459 (Nature structural & molecular biology, 2018).

The target of data set [1] is NUDT16TI (NUDT16 Tudor-interacting), purified alone (UniProt Q96DE0). The data set can be described thus: ITC. On the technique in general: ITC needs no label: the signal is the heat of the interaction.
Data set [2] has as its target NUDT16TI K5S (UniProt Q96DE0). Nature of the data set: ITC.
The target in data set [3] is NUDT16TI with deletion of His105 (UniProt Q96DE0). The data set can be described thus: ITC.
Data set [4] deals with the molecule itself. Nature of the data set: AUC.
The target of data set [5] is TIRR (residues 6-211), untagged (human, UniProt Q9BRJ7 6-211). The data set can be described thus: crystal structure.
Chain of TIRR (residues 6-211), untagged (Q9BRJ7 6-211): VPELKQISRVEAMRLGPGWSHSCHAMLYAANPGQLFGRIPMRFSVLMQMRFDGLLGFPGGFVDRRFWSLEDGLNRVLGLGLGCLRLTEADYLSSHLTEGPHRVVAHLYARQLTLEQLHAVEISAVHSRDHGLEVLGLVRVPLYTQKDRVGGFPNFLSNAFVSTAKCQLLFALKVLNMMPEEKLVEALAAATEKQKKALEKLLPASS

Usually Kd stands for the concentration at which binding is half-saturated. Lower therefore signals tighter binding. As for “53BP1-Tudor (residues 1484-1603) (from UniProt Q12888 1484-1603) (domain or fragment)”, in data set [1], the dissociation constant (Kd) stood at 1.2 µM and the fold increase of Kd with excess IMP against no IMP was determined as 3 fold. Also, in data set [2], the fold decrease in affinity against NUDT16TI is 14 fold. Further, the fold decrease in affinity against NUDT16TI in data set [3] was found to be 38 fold.

B1: 53BP1 (residues 1204-1603) (domain or fragment, human, UniProt Q12888 1204-1603, looked up)
chain: EKPVSAPGDDTESLHSQGEEEFDMPQPPHGHVLHRHMRTIREVRTLVTRVITDVYYVDGTEVERKVTEETEEPIVECQECETEVSPSQTGGSSGDLGDISSFSSKASSLHRTSSGTSLSAMHSSGSSGKGAGPLRGKTSGTEPADFALPSSRGGPGKLSPRKGVSQTGTPVCEEDGDAGLGIRQGGKAPVTPRGRGRRGRPPSRTTGTRETAVPGPLGIEDISPNLSPDDKSFSRVVPRVPDSTRRTDVGAGALRRSDSPEIPFQAAAGPSDGLDASSPGNSFVGLRVVAKWSSNGYFYSGKITRDVGAGKYKLLFDDGYECDVLGKDILLCDPIPLDTEVTALSEDEYFSAGVVKGHRKESGELYYSIEKEGQRKWYKRMAVILSLEQGNRLREQYGLG
Broadly, the stoichiometry N is the number of molecules, sites or subunits per partner or assembly. With B1, the “stoichiometry N” value in data set [4] came out at 2.

B2: 53BP1-Tudor (residues 1484-1603) (domain or fragment, human, UniProt Q12888 1484-1603, looked up)
chain: NSFVGLRVVAKWSSNGYFYSGKITRDVGAGKYKLLFDDGYECDVLGKDILLCDPIPLDTEVTALSEDEYFSAGVVKGHRKESGELYYSIEKEGQRKWYKRMAVILSLEQGNRLREQYGLG
As for B2, in data set [5], the binding result is “binds”.
